Assay results: publication doi:10.1101/2022.12.02.518933

B1: AF546-labeled BtuF harboring the E202A mutation (natural protein)
chain: APRVITLSPANTELAFAAGITPVGVSSYSDYPPQAQKIEQVSTWQGMNLERIVALKPDLVIAWRGGNAERQVDQLASLGIKVMWVDATSIEQIANALRQLAPWSPQPDKAEQAAQSLLDQYAQLKAQYADKPKKRVFLQFGINPPFTSGKESIQNQVLEVCGGENIFKDSRVPWPQVSRAQVLARSPQAIVITGGPDQIPKIKQYWGEQLKIPVIPLTSDWFERASPRIILAAQQLCNALSQVD
modifications: Alexa Fluor 546 C5 maleimide on the cysteine appended to the C-terminus
B2: AlexaFluor 546 (AF546)-labeled E. coli BtuF (natural protein)
chain: APRVITLSPANTELAFAAGITPVGVSSYSDYPPQAQKIEQVSTWQGMNLERIVALKPDLVIAWRGGNAERQVDQLASLGIKVMWVDATSIEQIANALRQLAPWSPQPDKAEQAAQSLLDQYAQLKAQYADKPKKRVFLQFGINPPFTSGKESIQNQVLEVCGGENIFKDSRVPWPQVSREQVLARSPQAIVITGGPDQIPKIKQYWGEQLKIPVIPLTSDWFERASPRIILAAQQLCNALSQVD
modifications: Alexa Fluor 546 C5 maleimide on the cysteine appended to the C-terminus

Target: AF647-labeled cysteine-less BtuCD Q111C reconstituted into nanodiscs (E. coli) (UniProt P06609)
Assay: FRET or BRET

| Binder | k fast (double exponential, green emission on addition of BtuCD*) [s⁻¹] | k slow (double exponential, green emission on addition of BtuCD*) [s⁻¹] | k fast (double exponential, with AMPPNP) [s⁻¹] | k fast (double exponential; initial single-lobe association) [s⁻¹] | k slow (double exponential, with AMPPNP) [s⁻¹] | k slow (double exponential; locking) [s⁻¹] |
| --- | --- | --- | --- | --- | --- | --- |
| B1 | 0.124 | 0.016 |  |  |  |  |
| B2 |  |  | 0.108 | 0.158 | 0.009 | 0.025 |
